How the values were obtained:
[1] = molecular target: bovine aorta ATPDase type II (78 KDa catalytic unit) (bovine) (UniProt O18956); test: precipitation of ADPase activity with lectin-agarose
[2] = molecular target: bovine aorta ATPDase type II (78 KDa catalytic unit) (bovine) (UniProt O18956); test: precipitation with lectin-agarose, elution with D-GlcNAc
[3] = molecular target: bovine aorta ATPDase type II (78 KDa catalytic unit) (bovine) (UniProt O18956); test: precipitation with lectin-agarose, elution with Me-alpha-D-mannopyranoside

Sequence of UniProt O18956 (O18956 whole entry, form in doubt): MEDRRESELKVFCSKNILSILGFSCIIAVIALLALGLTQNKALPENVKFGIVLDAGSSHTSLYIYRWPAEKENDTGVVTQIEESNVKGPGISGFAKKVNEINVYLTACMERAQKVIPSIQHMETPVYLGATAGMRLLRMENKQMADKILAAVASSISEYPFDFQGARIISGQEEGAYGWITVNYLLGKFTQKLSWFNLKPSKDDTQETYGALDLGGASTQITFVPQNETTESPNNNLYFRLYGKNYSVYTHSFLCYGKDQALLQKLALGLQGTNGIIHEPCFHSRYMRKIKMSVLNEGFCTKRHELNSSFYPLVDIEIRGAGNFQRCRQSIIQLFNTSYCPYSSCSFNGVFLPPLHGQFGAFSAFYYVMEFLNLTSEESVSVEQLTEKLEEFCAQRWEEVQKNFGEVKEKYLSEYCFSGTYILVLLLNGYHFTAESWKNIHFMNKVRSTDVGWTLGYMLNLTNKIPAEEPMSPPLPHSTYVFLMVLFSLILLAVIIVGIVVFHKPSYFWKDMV

Relative ADPase activity, Bound fraction [1] [%] | Relative ADPase activity, Supernatant (unbound) fraction [1] [%] | Relative ADPase activity, Eluted fraction [2] [%] | Relative ADPase activity, Eluted fraction [3] [%] | Substance
95 | 5 | 69 |  | WGA conjugated to agarose (from UniProt P10968 27-197)
95 | 5 |  | 62 | Con A conjugated to agarose (from UniProt P02866)

From patent publication US20030040094A1
